According to patent US20230295271A1 (UNIVERSITY OF SOUTHERN CALIFORNIA, published 2023):

Columns and labels:
[1] = target: T1, human fatty acid amide hydrolase (FAAH), amino acids 30-579 (human, UniProt O00519 30-579); experiment: SPR (Biacore T100), compared with parent A3 nanobody
T1 construct: range 30-579; Expressed in E. coli as an MBP fusion; The MBP tag was cleaved with Factor Xa, and SPR used the untagged FAAH; also called untagged FAAH; purified human FAAH protein
T1 sequence (looked up): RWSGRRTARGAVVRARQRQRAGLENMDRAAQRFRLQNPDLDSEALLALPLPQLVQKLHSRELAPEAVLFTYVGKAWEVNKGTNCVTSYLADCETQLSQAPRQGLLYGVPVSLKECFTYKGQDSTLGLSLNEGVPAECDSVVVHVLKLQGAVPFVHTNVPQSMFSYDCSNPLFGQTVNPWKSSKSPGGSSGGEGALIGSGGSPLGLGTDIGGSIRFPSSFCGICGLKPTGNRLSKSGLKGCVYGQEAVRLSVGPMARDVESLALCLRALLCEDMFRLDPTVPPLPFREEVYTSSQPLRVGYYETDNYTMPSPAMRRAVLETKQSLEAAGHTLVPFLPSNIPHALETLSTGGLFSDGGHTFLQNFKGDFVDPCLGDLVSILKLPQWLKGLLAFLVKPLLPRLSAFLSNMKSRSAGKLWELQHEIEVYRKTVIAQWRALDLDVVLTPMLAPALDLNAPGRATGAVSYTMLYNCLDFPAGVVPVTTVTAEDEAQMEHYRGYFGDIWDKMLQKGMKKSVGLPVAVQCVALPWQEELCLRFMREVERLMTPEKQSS
Method: (§1) In some cases, scFv/VHH were further purified by gel filtration using Superdex 75 column (GE Healthcare). Proteins were concentrated using Amicon Ultra-15 10 kDa centrifugal filter unit (Millipore) and stored in PBS at −70° C. Titration ELISA. Titration ELISA was used to measure binding of purified scFv to GLP-1R. GLP-1R immobilization in a 96 well plate and blocking was carried out as described for phage ELISA. A purified scFv was prepared at varying concentrations (from 1 nM to 3 μM) in 2% MPBS. 100 μl scFv aliquot of each concentration was added to a well and incubated at RT for 1.5 h. The plate was then washed with TPBS and PBS three times each. Primary anti His-tag Mouse mAb (Cell signaling Technology, Inc.) was diluted 1:250 in 2% MPBS and added into each well. […] The absorbance was read at 450 nm, using SpectraMax iD5 microplate reader (Molecular Devices, LLC). The dissociation constant Kd was calculated according to a published protocol. […] Binding of purified VHH nanobodies to Artemin and to untagged FAAH proteins was determined using Biacore T100 instrument (GE Healthcare). […] Kinetic constants for binding interaction were determined by fitting the sensorgrams with 1:1 binding model using Biacore T100 evaluation software, version 2.0 (GE healthcare).

[2] = target: T1, human fatty acid amide hydrolase …; experiment: SPR (Biacore T100), purified VHH and untagged FAAH, 1:1 model
Method: as §1

[3] = target: T2, human Glucagon-like peptide-1 receptor (GLP-1R), purified His6-tagged protein (human, UniProt P43220 24-463, limits assumed); experiment: titration ELISA, GLP-1R coated on the plate, purified scFv titrated; apparent Kd
T2 construct: Recombinant human His6-tagged GLP-1R purified from Sf9 biomass and immobilised on the plate for ELISA; also called purified GLP-1R protein

[4] = target: T2, human Glucagon-like peptide-1 receptor …; experiment: titration ELISA, apparent Kd compared with the parental scFv
[5] = target: T3, recombinant mouse artemin protein (Ala112-Gly224 fragment) (mouse, UniProt Q9Z0L2 112-224); experiment: SPR (Biacore T100), purified VHH and mouse artemin, 1:1 model
T3 construct: range 112-224; Bought as lyophilized powder from R&D Systems
T3 sequence (looked up): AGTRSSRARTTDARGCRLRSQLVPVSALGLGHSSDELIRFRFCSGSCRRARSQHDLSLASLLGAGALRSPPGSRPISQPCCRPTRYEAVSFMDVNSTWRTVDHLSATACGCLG
Method: as §1

B1: OD1 VHH nanobody (VHH)
VHH: VQLVESGGGLVQAGGSLRLSCAASGRTFSDNTMAWHRQGPGKQRGLVAFITTGGRTVYTDSVKGRFIISRDNAKNTGFLQMNSLKPEDTAVYYCYVAGNWGQGTQVTVHH
notes: Purified soluble His6-tagged llama VHH; also called mutated VHH clone (OD1)
fold increase in FAAH affinity compared to parent VHH A3 [1]: ~2.4 fold
Kd [2]: 0.65 nM

B2: GHM33 scFv (scFv)
scFv: VQLVQSGAEVKKPGSSVKVSCKASGGTFSSYAISWVRQAPGQGLEWMGGIIPIFGTANYAQKFQGRVTITADESTSTAYMELSSLRSEDTAVYYCARGRDDYYDSSAFDYWGQGTLVTVGGGGSGGGGSGGGGSGGGGSVLTQPPSVSVAPGQTARVTCGGNKIGSYSVYWYQHKPGQAPVLVVYDDSDRPSGIPERFSGSNSGNMATLTISGVEAGDEADYYCQVWDCTTDDVIFGGGTKLTVLHHHHHH
notes: Purified soluble His6-tagged scFv expressed from pADL-20c in the E. coli periplasm; The printed VH and VL start at the second residue and stop before the end of the J region; also called mutated scFv clone (GHM33); anti-GLP-1R scFv
Kd [3]: 100 nM
fold lower Kd than the parental scFv [4]: ~3 fold

B3: LM52 VHH nanobody (VHH)
VHH: VQLVESGGGLVQAGASLRLSCAASGGTLVNSSMGWFRQAPGKERDFVATINWRGDTTWYGESVKGRFSISRDNTKNMVYLQMNSLKPEDTAVYYCAVYRTRYYTGRRMMSPDEYDVWGQGTQVTVHH
notes: From the mutagenized llama VHH library; likely a mutant variant of LU5
Kd [5]: 102 nM
